Changes are numbered by the printed parent chain.

The source of these data is patent US20220348629A1 (EUREKA THERAPEUTICS, published 2022).

First the molecules themselves.
B1: anti-AFP158/HLA-A*02:01-abTCR-4 (other)
chain 1: QSVLTQPASVSGSPGQSITISCTGTSSDVGGYNYVSWYQQHPGKAPKLMIYDVNNRPSEVSNRFSGSKSGNTASLTISGLQAEDEADYYCSSYTTGSRAVFGGGTKLTVLGQPKANPTVTLFPPSSEELQANKATLVCLISDFYPGAVTVAWKADGSPVKAGVETTKPSKQSNNKYAASSYLSLTPEQWKSHRSYSCQVTHEGSTVEKTVAPTECSESSCDVKLVEKSFETDTNLNFQNLSVIGFRILLLKVAGFNLLMTLRLWSSDYKDHDGDYKDHDIDYKDDDDK
chain 2: EVQLVQSGAEVKKPGESLTISCKASGYSFPNYWITWVRQMSGGGLEWMGRIDPGDSYTTYNPSFQGHVTISIDKSTNTAYLHWNSLKASDTAMYYCARYYVSLVDIWGQGTLVTVSSASTKGPSVFPLAPSSKSTSGGTAALGCLVKDYFPEPVTVSWNSGALTSGVHTFPAVLQSSGLYSLSSVVTVPSSSLGTQTYICNVNHKPSNTKVDKRVEPKSCADCGFTSVSYQQGVLSATILYEILLGKATLYAVLVSALVLMAMVKRKDFYPYDVPDYA
B2: anti-AFP158/HLA-A*02:01-abTCR-6 (other)
chain 1: EVQLVQSGAEVKKPGESLTISCKASGYSFPNYWITWVRQMSGGGLEWMGRIDPGDSYTTYNPSFQGHVTISIDKSTNTAYLHWNSLKASDTAMYYCARYYVSLVDIWGQGTLVTVSSASTKGPSVFPLAPSSKSTSGGTAALGCLVKDYFPEPVTVSWNSGALTSGVHTFPAVLQSSGLYSLSSVVTVPSSSLGTQTYICNVNHKPSNTKVDKRVEPKSCDHVKPKETENTKQPSKSCHKPKAIVHTEKVNMMSLTVLGLRMLFAKTVAVNFLLTAKLFFLYPYDVPDYA
chain 2: QSVLTQPASVSGSPGQSITISCTGTSSDVGGYNYVSWYQQHPGKAPKLMIYDVNNRPSEVSNRFSGSKSGNTASLTISGLQAEDEADYYCSSYTTGSRAVFGGGTKLTVLGQPKANPTVTLFPPSSEELQANKATLVCLISDFYPGAVTVAWKADGSPVKAGVETTKPSKQSNNKYAASSYLSLTPEQWKSHRSYSCQVTHEGSTVEKTVAPTECSMDPKDNCSKDANDTLLLQLTNTSAYYMYLLLLLKSVVYFAIITCCLLRRTAFCCNGEKSDYKDHDGDYKDHDIDYKDDDDK
B3: anti-AFP158/HLA-A*02:01-abTCR-3 (other)
chain 1: EVQLVQSGAEVKKPGESLTISCKASGYSFPNYWITWVRQMSGGGLEWMGRIDPGDSYTTYNPSFQGHVTISIDKSTNTAYLHWNSLKASDTAMYYCARYYVSLVDIWGQGTLVTVSSASTKGPSVFPLAPSSKSTSGGTAALGCLVKDYFPEPVTVSWNSGALTSGVHTFPAVLQSSGLYSLSSVVTVPSSSLGTQTYICNVNHKPSNTKVDKRVEPKSCESSCDVKLVEKSFETDTNLNFQNLSVIGFRILLLKVAGFNLLMTLRLWSSDYKDHDGDYKDHDIDYKDDDDK
chain 2: QSVLTQPASVSGSPGQSITISCTGTSSDVGGYNYVSWYQQHPGKAPKLMIYDVNNRPSEVSNRFSGSKSGNTASLTISGLQAEDEADYYCSSYTTGSRAVFGGGTKLTVLGQPKANPTVTLFPPSSEELQANKATLVCLISDFYPGAVTVAWKADGSPVKAGVETTKPSKQSNNKYAASSYLSLTPEQWKSHRSYSCQVTHEGSTVEKTVAPTECSADCGFTSVSYQQGVLSATILYEILLGKATLYAVLVSALVLMAMVKRKDFYPYDVPDYA
B4: anti-AFP158/HLA-A*02:01-abTCR-5 (other)
chain 1: QSVLTQPASVSGSPGQSITISCTGTSSDVGGYNYVSWYQQHPGKAPKLMIYDVNNRPSEVSNRFSGSKSGNTASLTISGLQAEDEADYYCSSYTTGSRAVFGGGTKLTVLGQPKANPTVTLFPPSSEELQANKATLVCLISDFYPGAVTVAWKADGSPVKAGVETTKPSKQSNNKYAASSYLSLTPEQWKSHRSYSCQVTHEGSTVEKTVAPTECSDHVKPKETENTKQPSKSCHKPKAIVHTEKVNMMSLTVLGLRMLFAKTVAVNFLLTAKLFFLYPYDVPDYA
chain 2: EVQLVQSGAEVKKPGESLTISCKASGYSFPNYWITWVRQMSGGGLEWMGRIDPGDSYTTYNPSFQGHVTISIDKSTNTAYLHWNSLKASDTAMYYCARYYVSLVDIWGQGTLVTVSSASTKGPSVFPLAPSSKSTSGGTAALGCLVKDYFPEPVTVSWNSGALTSGVHTFPAVLQSSGLYSLSSVVTVPSSSLGTQTYICNVNHKPSNTKVDKRVEPKSCMDPKDNCSKDANDTLLLQLTNTSAYYMYLLLLLKSVVYFAIITCCLLRRTAFCCNGEKSDYKDHDGDYKDHDIDYKDDDDK
B5: anti-AFP158/HLA-A*02:01-abTCR-6MD (other)
chain 1: EVQLVQSGAEVKKPGESLTISCKASGYSFPNYWITWVRQMSGGGLEWMGRIDPGDSYTTYNPSFQGHVTISIDKSTNTAYLHWNSLKASDTAMYYCARYYVSLVDIWGQGTLVTVSSASTKGPSVFPLAPSSKSTSGGTAALGCLVKDYFPEPVTVSWNSGALTSGVHTFPAVLQSSGLYSLSSVVTVPSSSLGTQTYICNVNHKPSNTKVDKRVEPKSCEVKTDSTDHVKPKETENTKQPSKSCHKPKAIVHTEKVNMMSLTVLGLRMLFAKTVAVNFLLTAKLFFLYPYDVPDYA
chain 2: QSVLTQPASVSGSPGQSITISCTGTSSDVGGYNYVSWYQQHPGKAPKLMIYDVNNRPSEVSNRFSGSKSGNTASLTISGLQAEDEADYYCSSYTTGSRAVFGGGTKLTVLGQPKANPTVTLFPPSSEELQANKATLVCLISDFYPGAVTVAWKADGSPVKAGVETTKPSKQSNNKYAASSYLSLTPEQWKSHRSYSCQVTHEGSTVEKTVAPTECSPIKTDVITMDPKDNCSKDANDTLLLQLTNTSAYYMYLLLLLKSVVYFAIITCCLLRRTAFCCNGEKSDYKDHDGDYKDHDIDYKDDDDK
notes: also called anti-AFP158 abTCR
B6: anti-AFP158/HLA-A*02:01 abTCR with IgG1 CH1 domain (other)
heavy: EVQLVQSGAEVKKPGESLTISCKASGYSFPNYWITWVRQMSGGGLEWMGRIDPGDSYTTYNPSFQGHVTISIDKSTNTAYLHWNSLKASDTAMYYCARYYVSLVDIWGQGTLVTVSSASTKGPSVFPLAPSSKSTSGGTAALGCLVKDYFPEPVTVSWNSGALTSGVHTFPAVLQSSGLYSLSSVVTVPSSSLGTQTYICNVNHKPSNTKVDKRVEPKSCEVKTDSTDHVKPKETENTKQPSKSCHKPKAIVHTEKVNMMSLTVLGLRMLFAKTVAVNFLLTAKLFFL
light: QSVLTQPASVSGSPGQSITISCTGTSSDVGGYNYVSWYQQHPGKAPKLMIYDVNNRPSEVSNRFSGSKSGNTASLTISGLQAEDEADYYCSSYTTGSRAVFGGGTKLTVLGQPKANPTVTLFPPSSEELQANKATLVCLISDFYPGAVTVAWKADGSPVKAGVETTKPSKQSNNKYAASSYLSLTPEQWKSHRSYSCQVTHEGSTVEKTVAPTECSPIKTDVITMDPKDNCSKDANDTLLLQLTNTSAYYMYLLLLLKSVVYFAIITCCLLRRTAFCCNGEKS
B7: anti-AFP158/HLA-A*02:01 abTCR with IgG4 CH1 domain (other)
heavy: B6 heavy with S131C, K133R, G137E, G138S, Q196K, I199T, N203D, P217S, S219Y, C220G
light: B6 light

One test deals with T1, PE-labeled AFP158/HLA-A*02:01 tetramer (human, biotinylated via the BSP peptide linked to the C-terminal end of the HLA-A*02:01 extracellular domain).
T1 construct: monomers single chain; also called AFP158 tetramer; AFP158/HLA-A*02:01 tetramers; not shown: BSP peptide (BirA biotinylation site) at the C-terminus
In words: flow cytometry; Jurkat cells transduced with the construct, stained with PE-labelled AFP158/HLA-A*02:01 tetramer. A general note: A flow cytometer gives signals particle by particle.
For the molecule B1, the “% of cells in gate high” value is 0.574%, the “% of cells in gate low” value came to 12.3% and the “% of cells in gate negative” value worked out at 87.1%.
On to B2, for which the “% of cells in gate high” value was 6.17%, the “% of cells in gate low” value was 4.36% and the “% of cells in gate negative” value stood at 89.5%.
Taken in the same sequence, the figures for B3 were 3.7%, 56.2% and 40.2%.
As to B4, the “% of cells in gate high” value is 7.64%, the “% of cells in gate low” value came to 3.7% and the “% of cells in gate negative” value was found to be 88.7%.
For the molecule B5, the “% of cells in gate high” value worked out at 19%, the “% of cells in gate low” value was 9.54% and the “% of cells in gate negative” value was determined as 71.5%.

A further test addresses T1, PE-labeled AFP158/HLA-A*02:01 tetramer. In words: flow cytometry; J.RT3-T3.5 cells transduced with the construct, stained with PE-labelled AFP158/HLA-A*02:01 tetramer.
With B1, the “% of cells in gate high” value was 0.928%, the “% of cells in gate low” value is 19.1% and the “% of cells in gate negative” value was 80.1%.
B2: the “% of cells in gate high” value turned out to be 8%, the “% of cells in gate low” value came out at 5.35% and the “% of cells in gate negative” value came out at 87.2%.
As for B3, the “% of cells in gate high” value came to 5.68% and the “% of cells in gate negative” value was 19.5%.
As to B4, the “% of cells in gate high” value is 9.41%, the “% of cells in gate low” value was found to be 4.98% and the “% of cells in gate negative” value turned out to be 86.1%.
The like results for B5 were, in that order, 24.2%, 13.8% and 63.4%.

For the next test the target is unchanged. Description: flow cytometry, AFP158 tetramer binding on transduced T cells. As for the experimental part: Primary human T-cells were used for transduction after one-day stimulation with CD3/CD28 beads (Dynabeads®, Invitrogen) in the presence of interleukin-2 (IL-2) at 100 U/ml. Concentrated lentiviruses were applied to T-cells in Retronectin-(Takara) coated 6-well plates for 96 hours. Transduction efficiencies of the anti-AFP and anti-CD19 chimeric constructs were assessed by flow cytometry, using biotinylated AFP158/HLA-A*02:01 tetramer (“AFP158 tetramer”) with PE-conjugated streptavidin or anti-myc antibody respectively. Repeat flow cytometry analyses were done on day 5 and every 3-4 days thereafter.
Specific lysis was measured after 16 hr incubation using the Cytox 96 Non-radioactive Cytotoxicity Assay (Promega).
As to B6, the “AFP 158 tetramer+ (percent)” value turned out to be 64.5 percent.
Same read-out and setting: with B7 the figure was 22.2 percent.
